The values below come from paper PMC5555656 (Molecular Biology of the Cell, 2017).

The target of this test is T1, hexahistidine (his6)-tagged Qc-SNARE Vam7 (yeast, UniProt P32912 1-316).
T1 sequence (looked up): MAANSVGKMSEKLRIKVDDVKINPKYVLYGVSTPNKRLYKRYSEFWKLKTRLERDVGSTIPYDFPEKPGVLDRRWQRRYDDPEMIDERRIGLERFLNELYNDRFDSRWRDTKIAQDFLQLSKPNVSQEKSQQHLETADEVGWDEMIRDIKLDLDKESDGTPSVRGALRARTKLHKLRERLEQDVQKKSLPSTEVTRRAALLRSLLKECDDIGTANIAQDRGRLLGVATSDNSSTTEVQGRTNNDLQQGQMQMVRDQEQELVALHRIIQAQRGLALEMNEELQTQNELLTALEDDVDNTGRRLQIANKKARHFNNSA
Kind of test: pull-down.

B1: yeast vacuolar R-SNARE Nyv1, membrane-anchored (natural protein, UniProt Q12255 1-253, looked up)
chain: MKRFNVSYVEVIKNGETISSCFQPFQKNENYGTITSANEQITPVIFHNLIMDMVLPKVVPIKGNKVTKMSMNLIDGFDCFYSTDDHDPKTVYVCFTLVDMPKILPIRILSGLQEYESNATNELLSSHVGQILDSFHEELVEYRNQTLNSSGNGQSSNGNGQNTISDIGDATEDQIKDVIQIMNDNIDKFLERQERVSLLVDKTSQLNSSSNKFRRKAVNIKEIMWWQKVKNITLLTFTIILFVSAAFMFFYLW
With B1, the binding result is given as “binds”.
